Patent publication US20100021474A1 (Genentech, published 2010)

Experiments:
[1] = target: T1, uPA (high molecular weight form) (UniProt P00749 21-431, limits assumed); assay: Ki app, enzyme inhibition assay with chromogenic substrate S2444, fit to the tight binding inhibition equation
T1 construct: Bought reagent
Experimental: (§1) A soluble form of the bi-Kunitz inhibitor HAI-2 was used as a stop reagent for the pro-uPA activation assay. […] HAI-2 was incubated with 0.5 nM HEPSIN or 10 nM uPA for 30 min in Hepes buffer (20 mM Hepes, pH 7.5, 150 mM NaCl, 5 mM CaCl₂, 0.01% Triton X-100) at room temperature. The chromogenic substrates S2366 (for HEPSIN) or S2444 (for uPA) were added at a concentration corresponding to their respective Kₘ values, which were determined in separate experiments. After substrate addition, the increase in absorbance at 405 nm was measured on a kinetic microplate reader (Molecular Devices, Sunnyvale, Calif.). The Kᵢ^app values were determined by fitting the data to the equation for tight binding inhibition (22,23).

[2] = target: T2, soluble form of HEPSIN comprising the entire extracellular domain (human HEPSIN Arg45-Leu417, His-tagged) (human, UniProt P05981 45-417); assay: Ki app, enzyme inhibition assay with chromogenic substrate S2366, fit to the tight binding inhibition equation
T2 construct: range 45-417; Under reducing SDS-PAGE it runs as a 20 kDa A-chain and a 30 kDa B-chain; also called soluble HEPSIN; recombinant soluble HEPSIN; not shown: His tag
Experimental: as §1

T2 sequence (P05981 45-417 limits assumed): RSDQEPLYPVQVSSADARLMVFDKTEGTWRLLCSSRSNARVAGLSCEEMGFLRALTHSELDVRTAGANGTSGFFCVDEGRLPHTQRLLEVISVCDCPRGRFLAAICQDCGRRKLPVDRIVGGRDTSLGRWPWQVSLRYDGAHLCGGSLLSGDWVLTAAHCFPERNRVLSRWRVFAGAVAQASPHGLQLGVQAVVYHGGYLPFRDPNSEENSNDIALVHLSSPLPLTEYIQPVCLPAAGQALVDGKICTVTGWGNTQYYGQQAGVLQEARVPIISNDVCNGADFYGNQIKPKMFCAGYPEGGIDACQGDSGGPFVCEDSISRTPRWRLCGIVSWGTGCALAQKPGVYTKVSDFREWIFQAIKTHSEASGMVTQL

B1: soluble form of hepatocyte growth factor activator inhibitor-2 (HAI-2) (other, UniProt O43291 28-197, looked up)
chain: ADRERSIHDFCLVSKVVGRCRASMPRWWYNVTDGSCQLFVYGGCDGNSNNYLTKEECLKKCATVTENATGDLATSRNAADSSVPSAPRRQDSEDHSSDMFNYEEYCTANAVTGPCRASFPRWYFDVERNSCNNFIYGGCRGNKNSYRSEEACMLRCFRQQENPPLPLGSK
notes: Called a soluble form
With B1 the Ki [1] was over 1000 nM and the Ki [2] was 0.26 nM.
